Earlier results on one substance are cited in paper PMC8894380.

For this data set, the target named is PRPF8 Jab1 (Saccharomyces cerevisiae) (UniProt P33334).
PRPF8 Jab1 (Saccharomyces cerevisiae), sequence (P33334 2148-2395): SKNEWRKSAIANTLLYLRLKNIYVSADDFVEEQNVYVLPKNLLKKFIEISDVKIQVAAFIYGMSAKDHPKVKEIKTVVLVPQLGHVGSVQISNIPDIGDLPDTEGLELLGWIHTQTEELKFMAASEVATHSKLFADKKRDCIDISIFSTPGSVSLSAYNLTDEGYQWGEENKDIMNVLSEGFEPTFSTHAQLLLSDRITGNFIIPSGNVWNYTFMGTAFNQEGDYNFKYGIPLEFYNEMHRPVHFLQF

BRR2 helicase region, sequence (P32639 442-2163): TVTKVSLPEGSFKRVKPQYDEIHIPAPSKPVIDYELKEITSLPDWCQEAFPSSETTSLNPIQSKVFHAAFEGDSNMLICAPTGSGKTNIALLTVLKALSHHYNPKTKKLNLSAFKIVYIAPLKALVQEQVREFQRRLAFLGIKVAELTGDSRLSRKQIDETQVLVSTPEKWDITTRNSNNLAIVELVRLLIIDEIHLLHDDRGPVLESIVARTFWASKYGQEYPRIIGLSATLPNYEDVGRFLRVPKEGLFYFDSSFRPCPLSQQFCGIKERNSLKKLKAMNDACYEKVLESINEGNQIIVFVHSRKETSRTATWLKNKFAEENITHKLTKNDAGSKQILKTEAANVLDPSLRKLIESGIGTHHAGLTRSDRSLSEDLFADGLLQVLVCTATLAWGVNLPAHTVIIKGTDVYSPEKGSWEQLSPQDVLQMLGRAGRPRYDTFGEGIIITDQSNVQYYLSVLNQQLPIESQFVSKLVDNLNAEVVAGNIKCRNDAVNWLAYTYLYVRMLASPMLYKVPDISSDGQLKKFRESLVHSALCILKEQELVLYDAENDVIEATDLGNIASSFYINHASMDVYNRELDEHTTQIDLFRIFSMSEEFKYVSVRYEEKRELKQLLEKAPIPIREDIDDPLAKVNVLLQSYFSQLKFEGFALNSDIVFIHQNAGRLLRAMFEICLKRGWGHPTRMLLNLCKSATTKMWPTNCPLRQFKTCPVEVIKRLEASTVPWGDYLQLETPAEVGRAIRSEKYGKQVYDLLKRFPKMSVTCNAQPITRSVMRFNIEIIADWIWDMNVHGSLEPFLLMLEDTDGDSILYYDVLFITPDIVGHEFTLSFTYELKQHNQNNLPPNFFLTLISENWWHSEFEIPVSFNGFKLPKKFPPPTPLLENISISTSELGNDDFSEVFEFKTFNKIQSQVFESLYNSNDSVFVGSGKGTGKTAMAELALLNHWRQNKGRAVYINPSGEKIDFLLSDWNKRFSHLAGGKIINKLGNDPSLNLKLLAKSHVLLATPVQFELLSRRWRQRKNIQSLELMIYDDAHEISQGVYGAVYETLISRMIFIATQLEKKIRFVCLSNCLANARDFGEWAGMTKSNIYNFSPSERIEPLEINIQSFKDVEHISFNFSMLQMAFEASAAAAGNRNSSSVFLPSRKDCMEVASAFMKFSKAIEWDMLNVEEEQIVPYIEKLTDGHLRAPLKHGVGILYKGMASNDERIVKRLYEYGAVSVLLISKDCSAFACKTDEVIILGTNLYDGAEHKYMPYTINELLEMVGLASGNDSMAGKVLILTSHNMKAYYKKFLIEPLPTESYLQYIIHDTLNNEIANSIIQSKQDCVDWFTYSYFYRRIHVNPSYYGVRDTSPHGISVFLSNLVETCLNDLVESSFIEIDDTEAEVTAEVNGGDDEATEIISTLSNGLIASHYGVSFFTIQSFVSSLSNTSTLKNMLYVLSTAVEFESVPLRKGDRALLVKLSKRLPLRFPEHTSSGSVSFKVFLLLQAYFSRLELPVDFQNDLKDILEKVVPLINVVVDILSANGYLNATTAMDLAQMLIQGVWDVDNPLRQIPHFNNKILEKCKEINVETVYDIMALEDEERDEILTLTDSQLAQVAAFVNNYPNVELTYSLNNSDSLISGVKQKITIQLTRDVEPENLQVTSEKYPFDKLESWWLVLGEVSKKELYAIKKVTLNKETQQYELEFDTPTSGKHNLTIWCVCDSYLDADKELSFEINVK

For the substance “BRR2 helicase region (from UniProt P32639)”, the Kd was 8 nM.
